Assay results reported in patent US20110263827A1 (AbbVie / Abbott, published 2011).

Legend:
[1] = molecular target: T1, EGFR (UniProt P00533 25-645, limits assumed, biotinylated); assay: direct bind ELISA, C-term VD;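 further: ELISA with antibody or DVD-Ig preparations applied to target antigen-coated plates for 1 h at room temperature, TMB colour development, absorbance read at 450 nm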
T1 construct: ELISA antigen; construct not described

[2] = molecular target: T2, ErbB3 (UniProt P21860 20-643, limits assumed, biotinylated); assay: direct bind ELISA, N-term VD;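 further: antibody or DVD-Ig preparations bound to immobilized target antigen on ELISA plates, 1 h at room temperature, TMB detection read as absorbance at 450 nm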
T2 construct: ELISA antigen

[3] = molecular target: T3, VEGF (UniProt P15692-4 27-191, limits assumed, biotinylated); assay: direct bind ELISA, C-term VD;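 further: ELISA with antibody or DVD-Ig preparations applied to target antigen-coated plates for 1 h at room temperature, TMB colour development, absorbance read at 450 nm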
T3 construct: ELISA antigen

[4] = molecular target: T1, EGFR; assay: direct bind ELISA, N-term VD;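 further: antibody or DVD-Ig preparations bound to immobilized target antigen on ELISA plates, 1 h at room temperature, TMB detection read as absorbance at 450 nm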

Binder | EC50 [1] | EC50 [2] | EC50 [3] | EC50 [4]
DVD832 (bispecific antibody, DVD-Ig; HC S, LC L; variable parts only) VH: EVQLVESGGGLVQPGGSLRLSCAASGFTFSIYSMNWVRQAPGKGLEWVSYISSSSSTIYYADSVKGRFTISRDNAKNSLYLQMNSLRDEDTAVYYCARDRGDFDAFDIWGQGTMVTVSSASTKGPQVQLQESGPGLVKPSQTLSLTCTVSGYSISSDFAWNWIRQPPGKGLEWMGYISYSGNTRYQPSLKSRITISRDTSKNQFFLKLNSVTAADTATYYCVTAGRGFPYWGQGTLVTVSS VL: DIQMTQSPSSLSASVGDRVTITCQASQDITNYLNWYQQKPGKAPKLLIYDASNLETGVPSRFSGSGSGTDFTFTISSLQPEDIATYNCQQCENFPITFGQGTRLEIKRTVAAPSVFIFPPDIQMTQSPSSMSVSVGDRVTITCHSSQDINSNIGWLQQKPGKSFKGLIYHGTNLDDGVPSRFSGSGSGTDYTLTISSLQPEDFATYYCVQYAQFPWTFGGGTKLEIKR | 62.4 nM | 1.19 nM | – | –
DVD789 (bispecific antibody, DVD-Ig; HC L, LC L; variable parts only) VH: QVQLQESGPGLVKPSQTLSLTCTVSGYSISSDFAWNWIRQPPGKGLEWMGYISYSGNTRYQPSLKSRITISRDTSKNQFFLKLNSVTAADTATYYCVTAGRGFPYWGQGTLVTVSSASTKGPSVFPLAPEVQLVESGGGLVQPGGSLRLSCAASGFTISDYWIHWVRQAPGKGLEWVAGITPAGGYTYYADSVKGRFTISADTSKNTAYLQMNSLRAEDTAVYYCARFVFFLPYAMDYWGQGTLVTVSS VL: DIQMTQSPSSMSVSVGDRVTITCHSSQDINSNIGWLQQKPGKSFKGLIYHGTNLDDGVPSRFSGSGSGTDYTLTISSLQPEDFATYYCVQYAQFPWTFGGGTKLEIKRTVAAPSVFIFPPDIQMTQSPSSLSASVGDRVTITCRASQDVSTAVAWYQQKPGKAPKLLIYSASFLYSGVPSRFSGSGSGTDFTLTISSLQPEDFATYYCQQSYTTPPTFGQGTKVEIKR | – | – | 46 nM | 14.6 nM
DVD819 (bispecific antibody, DVD-Ig; HC L, LC S; variable parts only) VH: QVQLQESGPGLVKPSQTLSLTCTVSGYSISSDFAWNWIRQPPGKGLEWMGYISYSGNTRYQPSLKSRITISRDTSKNQFFLKLNSVTAADTATYYCVTAGRGFPYWGQGTLVTVSSASTKGPSVFPLAPEVQLVESGGGLVQPGGSLRLSCAASGFTISDYWIHWVRQAPGKGLEWVAGITPAGGYTYYADSVKGRFTISADTSKNTAYLQMNSLRAEDTAVYYCARFVFFLPYAMDYWGQGTLVTVSS VL: DIQMTQSPSSMSVSVGDRVTITCHSSQDINSNIGWLQQKPGKSFKGLIYHGTNLDDGVPSRFSGSGSGTDYTLTISSLQPEDFATYYCVQYAQFPWTFGGGTKLEIKRTVAAPDIQMTQSPSSLSASVGDRVTITCRASQDVSTAVAWYQQKPGKAPKLLIYSASFLYSGVPSRFSGSGSGTDFTLTISSLQPEDFATYYCQQSYTTPPTFGQGTKVEIKR | – | – | 36.4 nM | 12.2 nM
DVD791 (bispecific antibody, DVD-Ig; HC L, LC L; variable parts only) VH: QVQLQESGPGLVKPSQTLSLTCTVSGYSISSDFAWNWIRQPPGKGLEWMGYISYSGNTRYQPSLKSRITISRDTSKNQFFLKLNSVTAADTATYYCVTAGRGFPYWGQGTLVTVSSASTKGPSVFPLAPEVQLVESGGGLVQPGGSLRLSCAASGFTINASWIHWVRQAPGKGLEWVGAIYPYSGYTNYADSVKGRFTISADTSKNTAYLQMNSLRAEDTAVYYCARWGHSTSPWAMDYWGQGTLVTVSS VL: DIQMTQSPSSMSVSVGDRVTITCHSSQDINSNIGWLQQKPGKSFKGLIYHGTNLDDGVPSRFSGSGSGTDYTLTISSLQPEDFATYYCVQYAQFPWTFGGGTKLEIKRTVAAPSVFIFPPDIQMTQSPSSLSASVGDRVTITCRASQVIRRSLAWYQQKPGKAPKLLIYAASNLASGVPSRFSGSGSGTDFTLTISSLQPEDFATYYCQQSNTSPLTFGQGTKVEIKR | – | – | 11.6 nM | 8.24 nM
DVD821 (bispecific antibody, DVD-Ig; HC L, LC S; variable parts only) VH: QVQLQESGPGLVKPSQTLSLTCTVSGYSISSDFAWNWIRQPPGKGLEWMGYISYSGNTRYQPSLKSRITISRDTSKNQFFLKLNSVTAADTATYYCVTAGRGFPYWGQGTLVTVSSASTKGPSVFPLAPEVQLVESGGGLVQPGGSLRLSCAASGFTINASWIHWVRQAPGKGLEWVGAIYPYSGYTNYADSVKGRFTISADTSKNTAYLQMNSLRAEDTAVYYCARWGHSTSPWAMDYWGQGTLVTVSS VL: DIQMTQSPSSMSVSVGDRVTITCHSSQDINSNIGWLQQKPGKSFKGLIYHGTNLDDGVPSRFSGSGSGTDYTLTISSLQPEDFATYYCVQYAQFPWTFGGGTKLEIKRTVAAPDIQMTQSPSSLSASVGDRVTITCRASQVIRRSLAWYQQKPGKAPKLLIYAASNLASGVPSRFSGSGSGTDFTLTISSLQPEDFATYYCQQSNTSPLTFGQGTKVEIKR | – | – | 11.1 nM | 6.96 nM
DVD779 (bispecific antibody, DVD-Ig; HC L, LC L; variable parts only) VH: QVQLQESGPGLVKPSQTLSLTCTVSGYSISSDFAWNWIRQPPGKGLEWMGYISYSGNTRYQPSLKSRITISRDTSKNQFFLKLNSVTAADTATYYCVTAGRGFPYWGQGTLVTVSSASTKGPSVFPLAPEVQLVESGGGLVQPGGSLRLSCAASGYTFTNYGMNWVRQAPGKGLEWVGWINTYTGEPTYAADFKRRFTFSLDTSKSTAYLQMNSLRAEDTAVYYCAKYPHYYGSSHWYFDVWGQGTLVTVSS VL: DIQMTQSPSSMSVSVGDRVTITCHSSQDINSNIGWLQQKPGKSFKGLIYHGTNLDDGVPSRFSGSGSGTDYTLTISSLQPEDFATYYCVQYAQFPWTFGGGTKLEIKRTVAAPSVFIFPPDIQMTQSPSSLSASVGDRVTITCSASQDISNYLNWYQQKPGKAPKVLIYFTSSLHSGVPSRFSGSGSGTDFTLTISSLQPEDFATYYCQQYSTVPWTFGQGTKVEIKR | – | – | 0.24 nM | 10.6 nM
DVD809 (bispecific antibody, DVD-Ig; HC L, LC S; variable parts only) VH: QVQLQESGPGLVKPSQTLSLTCTVSGYSISSDFAWNWIRQPPGKGLEWMGYISYSGNTRYQPSLKSRITISRDTSKNQFFLKLNSVTAADTATYYCVTAGRGFPYWGQGTLVTVSSASTKGPSVFPLAPEVQLVESGGGLVQPGGSLRLSCAASGYTFTNYGMNWVRQAPGKGLEWVGWINTYTGEPTYAADFKRRFTFSLDTSKSTAYLQMNSLRAEDTAVYYCAKYPHYYGSSHWYFDVWGQGTLVTVSS VL: DIQMTQSPSSMSVSVGDRVTITCHSSQDINSNIGWLQQKPGKSFKGLIYHGTNLDDGVPSRFSGSGSGTDYTLTISSLQPEDFATYYCVQYAQFPWTFGGGTKLEIKRTVAAPDIQMTQSPSSLSASVGDRVTITCSASQDISNYLNWYQQKPGKAPKVLIYFTSSLHSGVPSRFSGSGSGTDFTLTISSLQPEDFATYYCQQYSTVPWTFGQGTKVEIKR | – | – | 0.23 nM | 7.34 nM
DVD839 (bispecific antibody, DVD-Ig; HC S, LC L; variable parts only) VH: QVQLQESGPGLVKPSQTLSLTCTVSGYSISSDFAWNWIRQPPGKGLEWMGYISYSGNTRYQPSLKSRITISRDTSKNQFFLKLNSVTAADTATYYCVTAGRGFPYWGQGTLVTVSSASTKGPEVQLVESGGGLVQPGGSLRLSCAASGYTFTNYGMNWVRQAPGKGLEWVGWINTYTGEPTYAADFKRRFTFSLDTSKSTAYLQMNSLRAEDTAVYYCAKYPHYYGSSHWYFDVWGQGTLVTVSS VL: DIQMTQSPSSMSVSVGDRVTITCHSSQDINSNIGWLQQKPGKSFKGLIYHGTNLDDGVPSRFSGSGSGTDYTLTISSLQPEDFATYYCVQYAQFPWTFGGGTKLEIKRTVAAPSVFIFPPDIQMTQSPSSLSASVGDRVTITCSASQDISNYLNWYQQKPGKAPKVLIYFTSSLHSGVPSRFSGSGSGTDFTLTISSLQPEDFATYYCQQYSTVPWTFGQGTKVEIKR | – | – | 0.26 nM | 12.5 nM
DVD830 (bispecific antibody, DVD-Ig; HC S, LC L; variable parts only) VH: QVQLQQWGAGLLKPSETLSLTCAVYGGSFSGYYWSWIRQPPGKGLEWIGEINHSGSTNYNPSLKSRVTISVETSKNQFSLKLSSVTAADTAVYYCARDKWTWYFDLWGRGTLVTVSSASTKGPQVQLQESGPGLVKPSQTLSLTCTVSGYSISSDFAWNWIRQPPGKGLEWMGYISYSGNTRYQPSLKSRITISRDTSKNQFFLKLNSVTAADTATYYCVTAGRGFPYWGQGTLVTVSS VL: DIEMTQSPDSLAVSLGERATINCRSSQSVLYSSSNRNYLAWYQQNPGQPPKLLIYWASTRESGVPDRFSGSGSGTDFTLTISSLQAEDVAVYYCQQYYSTPRTFGQGTKVEIKRTVAAPSVFIFPPDIQMTQSPSSMSVSVGDRVTITCHSSQDINSNIGWLQQKPGKSFKGLIYHGTNLDDGVPSRFSGSGSGTDYTLTISSLQPEDFATYYCVQYAQFPWTFGGGTKLEIKR | 42.7 nM | 1.43 nM | – | –
DVD848 (bispecific antibody, DVD-Ig; HC S, LC L; variable parts only) VH: EVQLLESGGGLVQPGGSLRLSCAASGFTFSHYVMAWVRQAPGKGLEWVSSISSSGGWTLYADSVKGRFTISRDNSKNTLYLQMNSLRAEDTAVYYCTRGLKMATIFDYWGQGTLVTVSSASTKGPQVQLQESGPGLVKPSQTLSLTCTVSGYSISSDFAWNWIRQPPGKGLEWMGYISYSGNTRYQPSLKSRITISRDTSKNQFFLKLNSVTAADTATYYCVTAGRGFPYWGQGTLVTVSS VL: QSALTQPASVSGSPGQSITISCTGTSSDVGSYNVVSWYQQHPGKAPKLIIYEVSQRPSGVSNRFSGSKSGNTASLTISGLQTEDEADYYCCSYAGSSIFVIFGGGTKVTVLGQPKAAPSVTLFPPDIQMTQSPSSMSVSVGDRVTITCHSSQDINSNIGWLQQKPGKSFKGLIYHGTNLDDGVPSRFSGSGSGTDYTLTISSLQPEDFATYYCVQYAQFPWTFGGGTKLEIKR | 16.7 nM | 3.23 nM | – | –
DVD756 (bispecific antibody, DVD-Ig; HC S, LC S; variable parts only) VH: EVQLLESGGGLVQPGGSLRLSCAASGFTFSHYVMAWVRQAPGKGLEWVSSISSSGGWTLYADSVKGRFTISRDNSKNTLYLQMNSLRAEDTAVYYCTRGLKMATIFDYWGQGTLVTVSSASTKGPQVQLQESGPGLVKPSQTLSLTCTVSGYSISSDFAWNWIRQPPGKGLEWMGYISYSGNTRYQPSLKSRITISRDTSKNQFFLKLNSVTAADTATYYCVTAGRGFPYWGQGTLVTVSS VL: QSALTQPASVSGSPGQSITISCTGTSSDVGSYNVVSWYQQHPGKAPKLIIYEVSQRPSGVSNRFSGSKSGNTASLTISGLQTEDEADYYCCSYAGSSIFVIFGGGTKVTVLGQPKAAPDIQMTQSPSSMSVSVGDRVTITCHSSQDINSNIGWLQQKPGKSFKGLIYHGTNLDDGVPSRFSGSGSGTDYTLTISSLQPEDFATYYCVQYAQFPWTFGGGTKLEIKR | 48.9 nM | 3.94 nM | – | –
